Target: Bpa78-βarr1 with a 2xStrep tag at the C-terminus (bovine) (UniProt P17870)
Experiment: cross-linking; Bpa78-βarr1-2xStrep in HEK293T cells irradiated with UV (365 nm) as intact cells, then isolated with Strep-Tactin XT (1 M NaCl, 1 M urea in the supernatant); product analysed by SDS-PAGE/blot, SEC (Superdex 200 Increase, 4°C, Buffer W), MALDI-TOF-MS and nano-HPLC/nano-ESI-Orbitrap-MS/MS

stoichiometry N: 2
Substance: Bpa78-βarr1 with a 2xStrep tag at the C-terminus (from UniProt P17870 1-418) (natural protein)
